Assay results reported in article PMC11602143, “Human selenocysteine synthase, SEPSECS, has evolved to optimize binding of a tRNA-based substrate” (Nucleic Acids Research, 2024).

Target: the molecule itself
Experiment: SEC-MALS; protein alone, 250 μl at 1 and 4 mg/ml on Superose 6 Increase 10/300; 20 mM Tris pH 8.0, 150 mM NaCl, 5% glycerol, 0.5 mM TCEP, 10 μM PLP; oligomeric state of the holoenzyme

Row | Protein | stoichiometry N
1 | Δ470 SEPSECS (human SEPSECS with Asp470 mutated to a stop codon) (domain or fragment, UniProt Q9HD40 1-469, looked up, Human SEPSECS truncated by a stop codon at the position of Asp470 (removes the α15–α16 loop and α16); made from pET15b-hWTSSS by site-directed mutagenesis; Same vector and purification as the wild type; also called Δ470 human SEPSECS; truncated mutant) MNRESFAAGERLVSPAYVRQGCEARRSHEHLIRLLLEKGKCPENGWDESTLELFLHELAIMDSNNFLGNCGVGEREGRVASALVARRHYRFIHGIGRSGDISAVQPKAAGSSLLNKITNSLVLDIIKLAGVHTVANCFVVPMATGMSLTLCFLTLRHKRPKAKYIIWPRIDQKSCFKSMITAGFEPVVIENVLEGDELRTDLKAVEAKVQELGPDCILCIHSTTSCFAPRVPDRLEELAVICANYDIPHIVNNAYGVQSSKCMHLIQQGARVGRIDAFVQSLDKNFMVPVGGAIIAGFNDSFIQEISKMYPGRASASPSLDVLITLLSLGSNGYKKLLKERKEMFSYLSNQIKKLSEAYNERLLHTPHNPISLAMTLKTLDEHRDKAVTQLGSMLFTRQVSGARVVPLGSMQTVSGYTFRGFMSHTNNYPCAYLNAASAIGMKMQDVDLFIKRLDRCLKAVRKERSKES | 4
2 | Human SEPSECS (O-phosphoseryl-tRNA^Sec selenium transferase), wild type (enzyme, Human SEPSECS, wild type, cloned into pET15b (pET15b-hWTSSS); no tag cleavage is described in the purification; PLP cofactor is present in the buffers; also called WT SEPSECS; human WT SEPSECS) MNRESFAAGERLVSPAYVRQGCEARRSHEHLIRLLLEKGKCPENGWDESTLELFLHELAIMDSNNFLGNCGVGEREGRVASALVARRHYRFIHGIGRSGDISAVQPKAAGSSLLNKITNSLVLDIIKLAGVHTVANCFVVPMATGMSLTLCFLTLRHKRPKAKYIIWPRIDQKSCFKSMITAGFEPVVIENVLEGDELRTDLKAVEAKVQELGPDCILCIHSTTSCFAPRVPDRLEELAVICANYDIPHIVNNAYGVQSSKCMHLIQQGARVGRIDAFVQSLDKNFMVPVGGAIIAGFNDSFIQEISKMYPGRASASPSLDVLITLLSLGSNGYKKLLKERKEMFSYLSNQIKKLSEAYNERLLHTPHNPISLAMTLKTLDEHRDKAVTQLGSMLFTRQVSGARVVPLGSMQTVSGYTFRGFMSHTNNYPCAYLNAASAIGMKMQDVDLFIKRLDRCLKAVRKERSKESDDNYDKTEDVDIEEMALKLDNVLLDTYQDASS | 4
